Assay results from paper PMC10933337, “RhoGDI phosphorylation by PKC promotes its interaction with death receptor p75^NTR to gate axon growth and neuron survival” (EMBO Reports, 2024).

Assays:
p75NTR [1] = target: p75NTR (UniProt Q9Z0W1); assay: p75NTR IP, Flag-RhoGDI immunoblot; settings: reference: wild type RhoGDI; sites S34
p75NTR [2] = target: p75NTR (UniProt Q9Z0W1); assay: p75NTR IP, Flag immunoblot; settings: reference: RhoGDI-59 wild type, PMA; sites S34
[3] = target: T1, human p75^NTR JXT domain (K273-D332) (human, UniProt P08138 273-332); assay: NMR titration; unlabeled p75NTR JXT titrated to 15N-labeled RhoGDI NTD S34D, [1H-15N] HSQC, 28 °C, 10 mM PIPES pH 6.8; 0.3 mM RhoGDI NTD and 1.5 mM p75NTR JXT; settings: both partners purified
T1 construct: juxtamembrane domain of human p75NTR, K273-D332, ~6.6 kDa; Cloned in a pET-32a-derived vector; unlabeled or 15N,13C-labeled for NMR; source: E. coli BL21 (DE3), purified (Ni-NTA, TEV cleavage, gel filtration, MonoS ion exchange)
T1 sequence (looked up): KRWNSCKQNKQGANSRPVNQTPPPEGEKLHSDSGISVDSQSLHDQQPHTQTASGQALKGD

RhoGDI (from UniProt Q99PT1) S34A
binding against the reference (p75NTR [1]): weaker

RhoGDI RhoGDI-59, 59 N-terminal residues (fused to GST) (from UniProt Q99PT1) RhoGDI-59 S34A, PMA
binding against the reference (p75NTR [2]): lost

B1: human RhoGDI NTD^S34D (A2-A60) (domain or fragment, UniProt P52565 2-60, looked up)
chain: AEQEPTAEQLAQIAAENEEDEHSVNYKPPAQKDIQEIQELDKDDESLRKYKEALLGRVA
notes: N-terminal domain of RhoGDI, A2-A60, ~6.8 kDa, with the phosphorylation-mimetic mutation S34D; Cloned in a pET-32a-derived vector; 15N- or 15N,13C-labeled or unlabeled for NMR; source: E. coli BL21 (DE3), purified (Ni-NTA, TEV cleavage, gel filtration, MonoQ ion exchange)
binding result [3]: binds
